For data set [1], the target named is T1, RpoA delta C-terminal 8 (residues 1-328) deletion of 329-336 (Agrobacterium tumefaciens) (UniProt P0A4E3).
T1 sequence: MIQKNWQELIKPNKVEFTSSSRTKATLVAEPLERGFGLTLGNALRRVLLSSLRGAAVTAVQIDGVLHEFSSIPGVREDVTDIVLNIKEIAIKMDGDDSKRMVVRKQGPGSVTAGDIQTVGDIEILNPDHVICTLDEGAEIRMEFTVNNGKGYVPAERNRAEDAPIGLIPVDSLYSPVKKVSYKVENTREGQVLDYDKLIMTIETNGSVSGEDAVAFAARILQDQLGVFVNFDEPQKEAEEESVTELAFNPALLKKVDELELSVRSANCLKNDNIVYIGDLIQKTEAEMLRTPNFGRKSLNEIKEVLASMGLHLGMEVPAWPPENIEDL
Description: cell_activity. The note with it: pAD8 in E. coli MC4100(pSY215) with VirGcon; vector control 3; indirect reporter.

Data set [2] has as its target T2, RpoA (RNAP alpha subunit), untagged (Agrobacterium tumefaciens) (UniProt P0A4E3).
T2 sequence: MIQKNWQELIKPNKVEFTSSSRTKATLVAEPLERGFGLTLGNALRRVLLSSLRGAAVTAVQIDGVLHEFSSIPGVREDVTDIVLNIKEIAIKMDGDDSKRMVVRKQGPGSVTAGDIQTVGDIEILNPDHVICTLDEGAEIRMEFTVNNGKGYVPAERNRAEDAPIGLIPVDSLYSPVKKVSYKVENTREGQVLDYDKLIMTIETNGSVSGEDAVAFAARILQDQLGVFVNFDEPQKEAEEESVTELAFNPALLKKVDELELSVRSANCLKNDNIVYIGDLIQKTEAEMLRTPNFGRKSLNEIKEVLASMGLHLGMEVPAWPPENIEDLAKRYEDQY
Description: cell_activity. The note with it: pPS1.3 in E. coli MC4100(pSY215) with VirGcon; vector control 3; indirect reporter.

Data set [3] deals with T3, E. coli RNA polymerase β′ subunit (Escherichia coli, UniProt P0A8T7 1-1407).
T3 construct: also called E. coli β′
The data set can be described thus: in vitro reconstitution of RNAP, SDS-PAGE (FIG. 4A).

Data set [4] deals with T4, E. coli RNA polymerase β subunit (Escherichia coli, UniProt P0A8V2 1-1342).
T4 construct: also called E. coli β
Described as above.

The target of data set [5] is T5, E. coli RNA polymerase σ70 subunit (Escherichia coli, UniProt P00579 1-613).
T5 construct: also called σ^70
The description is as above.

T4 sequence (P0A8V2 whole entry): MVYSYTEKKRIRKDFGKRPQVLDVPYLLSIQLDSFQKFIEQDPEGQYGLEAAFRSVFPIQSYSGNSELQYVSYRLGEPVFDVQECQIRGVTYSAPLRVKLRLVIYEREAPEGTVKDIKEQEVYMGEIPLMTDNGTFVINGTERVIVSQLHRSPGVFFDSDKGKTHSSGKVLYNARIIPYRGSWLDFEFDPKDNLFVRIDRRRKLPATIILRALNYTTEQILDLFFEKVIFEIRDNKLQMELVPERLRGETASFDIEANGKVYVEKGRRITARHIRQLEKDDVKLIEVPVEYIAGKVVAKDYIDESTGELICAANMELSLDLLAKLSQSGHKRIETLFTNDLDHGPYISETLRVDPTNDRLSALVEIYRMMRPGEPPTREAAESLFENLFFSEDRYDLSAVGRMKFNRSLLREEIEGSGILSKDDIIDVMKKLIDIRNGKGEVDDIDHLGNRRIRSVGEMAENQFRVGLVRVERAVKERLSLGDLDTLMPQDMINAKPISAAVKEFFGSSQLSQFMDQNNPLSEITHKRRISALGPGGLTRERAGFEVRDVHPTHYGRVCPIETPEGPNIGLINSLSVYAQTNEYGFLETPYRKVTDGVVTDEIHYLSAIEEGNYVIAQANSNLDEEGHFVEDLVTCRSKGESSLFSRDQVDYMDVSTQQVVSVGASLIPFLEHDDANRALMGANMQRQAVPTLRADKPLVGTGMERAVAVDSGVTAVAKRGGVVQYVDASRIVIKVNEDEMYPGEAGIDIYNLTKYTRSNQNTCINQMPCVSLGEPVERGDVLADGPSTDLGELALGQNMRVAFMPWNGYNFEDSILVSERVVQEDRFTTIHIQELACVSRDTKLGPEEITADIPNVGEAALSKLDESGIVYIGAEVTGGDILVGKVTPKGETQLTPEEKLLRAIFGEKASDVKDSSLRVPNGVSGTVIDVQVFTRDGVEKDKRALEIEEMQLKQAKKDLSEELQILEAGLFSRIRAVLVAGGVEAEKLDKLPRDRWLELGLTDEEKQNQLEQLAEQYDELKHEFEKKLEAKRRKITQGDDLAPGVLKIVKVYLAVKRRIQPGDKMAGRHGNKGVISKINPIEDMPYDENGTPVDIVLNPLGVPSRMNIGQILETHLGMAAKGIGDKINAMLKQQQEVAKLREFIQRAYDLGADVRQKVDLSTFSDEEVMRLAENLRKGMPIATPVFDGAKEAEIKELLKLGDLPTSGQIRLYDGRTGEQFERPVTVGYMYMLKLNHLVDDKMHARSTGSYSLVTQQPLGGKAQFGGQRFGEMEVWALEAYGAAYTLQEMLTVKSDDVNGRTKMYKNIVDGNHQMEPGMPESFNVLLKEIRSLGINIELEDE
T3 sequence (P0A8T7 whole entry): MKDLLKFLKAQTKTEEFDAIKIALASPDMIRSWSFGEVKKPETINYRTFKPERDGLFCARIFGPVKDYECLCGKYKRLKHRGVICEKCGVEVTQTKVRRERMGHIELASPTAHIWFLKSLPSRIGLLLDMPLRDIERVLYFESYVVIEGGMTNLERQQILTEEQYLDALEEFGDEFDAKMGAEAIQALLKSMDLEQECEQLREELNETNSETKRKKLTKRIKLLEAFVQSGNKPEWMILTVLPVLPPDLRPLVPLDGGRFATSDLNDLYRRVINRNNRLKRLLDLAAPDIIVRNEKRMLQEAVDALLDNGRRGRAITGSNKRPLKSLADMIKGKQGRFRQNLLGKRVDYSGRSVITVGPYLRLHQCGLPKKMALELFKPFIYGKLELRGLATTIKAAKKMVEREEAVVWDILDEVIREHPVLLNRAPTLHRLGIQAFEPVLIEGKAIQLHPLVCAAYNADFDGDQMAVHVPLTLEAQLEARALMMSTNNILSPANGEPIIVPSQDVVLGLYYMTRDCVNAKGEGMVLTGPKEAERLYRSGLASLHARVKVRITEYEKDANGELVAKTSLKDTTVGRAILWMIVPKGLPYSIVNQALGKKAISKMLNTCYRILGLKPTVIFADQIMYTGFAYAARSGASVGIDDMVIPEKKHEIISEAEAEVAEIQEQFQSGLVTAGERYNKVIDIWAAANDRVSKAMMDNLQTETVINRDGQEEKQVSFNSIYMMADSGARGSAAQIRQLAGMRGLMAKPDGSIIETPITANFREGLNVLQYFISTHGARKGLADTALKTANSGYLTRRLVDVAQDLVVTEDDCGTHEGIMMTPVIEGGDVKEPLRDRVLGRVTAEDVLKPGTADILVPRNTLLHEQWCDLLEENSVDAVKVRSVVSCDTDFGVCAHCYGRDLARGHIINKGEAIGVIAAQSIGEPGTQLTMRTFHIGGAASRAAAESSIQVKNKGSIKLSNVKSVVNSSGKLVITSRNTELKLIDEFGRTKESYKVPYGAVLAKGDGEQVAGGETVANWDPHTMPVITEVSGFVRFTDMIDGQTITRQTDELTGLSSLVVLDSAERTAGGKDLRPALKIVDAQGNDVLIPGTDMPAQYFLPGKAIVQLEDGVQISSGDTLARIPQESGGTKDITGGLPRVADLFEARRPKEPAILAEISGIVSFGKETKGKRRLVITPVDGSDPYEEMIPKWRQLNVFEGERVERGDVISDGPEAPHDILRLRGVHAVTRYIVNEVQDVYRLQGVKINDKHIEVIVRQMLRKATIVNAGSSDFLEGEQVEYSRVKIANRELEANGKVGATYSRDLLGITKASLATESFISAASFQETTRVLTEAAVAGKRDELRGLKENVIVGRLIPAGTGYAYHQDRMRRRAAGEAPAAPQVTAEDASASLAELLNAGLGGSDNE
T5 sequence (P00579 whole entry): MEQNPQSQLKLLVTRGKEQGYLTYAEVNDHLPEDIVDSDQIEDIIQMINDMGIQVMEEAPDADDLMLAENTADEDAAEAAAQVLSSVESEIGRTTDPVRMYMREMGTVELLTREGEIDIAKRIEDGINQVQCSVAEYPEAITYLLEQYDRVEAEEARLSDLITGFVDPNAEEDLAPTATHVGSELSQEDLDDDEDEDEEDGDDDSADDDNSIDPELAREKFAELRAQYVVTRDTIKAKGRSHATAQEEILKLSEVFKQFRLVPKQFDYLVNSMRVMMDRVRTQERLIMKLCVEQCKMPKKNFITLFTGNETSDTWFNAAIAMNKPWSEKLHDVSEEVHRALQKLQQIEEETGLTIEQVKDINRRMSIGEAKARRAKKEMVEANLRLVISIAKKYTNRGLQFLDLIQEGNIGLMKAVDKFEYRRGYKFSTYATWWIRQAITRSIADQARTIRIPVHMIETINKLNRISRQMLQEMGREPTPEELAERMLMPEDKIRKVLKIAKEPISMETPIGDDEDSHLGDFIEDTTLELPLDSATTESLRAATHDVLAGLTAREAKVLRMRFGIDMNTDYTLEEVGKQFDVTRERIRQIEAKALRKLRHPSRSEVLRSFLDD

Turning to virBp::lacZ reporter promoter, the activity in data set [1] was 4 Miller units; in data set [2], 140 Miller units.

B1: His-tagged RpoA (α subunit of RNA polymerase) of A. tumefaciens (other)
chain: T2 sequence
notes: not shown: N-terminal His tag from a pQE vector (Qiagen)
Consider B1, for which the binding result in data set [3], in data set [4] and in data set [5] was “binds” in each case.
